Measured values published in the supplement of paper PMC9170038.

Experiments:
[1] = system: MS2 coat protein; assay: apparent KD of MS2 coat protein; designed switch direction (-1 OFF switch, 1 ON switch): 1; higher = weaker reporter binding; settings: Eterna round: R98
Procedure: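 RNA-MaP: designed FMN/MS2 RNA switches (84 nt design region) are transcribed on-chip within common flanks and titrated with SNAP-549-labelled MS2 coat protein (about 1-3000 nM) in 100 mM Tris pH 7.5, 80 mM KCl, 4 mM MgCl2, without or with 200 uM FMN. Median apparent KD per design; activation ratio = KD,OFF / KD,ON.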

[2] = system: MS2 coat protein; assay: apparent KD of MS2 coat protein, switch ON state; designed switch direction (-1 OFF switch, 1 ON switch): 1; higher = weaker reporter binding; settings: FMN input: 0 or 200 uM; Eterna round: R93 (includes R88 designs)
Outline: (§1)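 For every design, apparent KD is the median of normalised binding-curve fits from its clusters. The RNA switches were transcribed on-chip from Illumina sequencing clusters and titrated with SNAP-549-labelled MS2 coat protein (twofold steps, 0.7 or 1.5 nM to 3 µM; 0.8–1.5 h to 10–20 min per step). Titrations used 100 mM Tris-HCl pH 7.5, 80 mM KCl, 4 mM MgCl2, without or with constant ligand.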

[3] = system: MS2 coat protein; assay: apparent KD of MS2 coat protein, switch OFF state (with FMN for OFF switches, without FMN for ON switches); designed switch direction (-1 OFF switch, 1 ON switch): 1; higher = weaker reporter binding; settings: FMN input: 0 or 200 uM; Eterna round: R93 (includes R88 designs)
Outline: as §1

Sequence | apparent KD of MS2 coat protein ([1]; input ligand: FMN 200 uM) | apparent KD of MS2 coat protein ([1]; input ligand: none) | apparent KD of MS2 coat protein [2] | apparent KD of MS2 coat protein [3]
AAAACAUACCGAGGAUAUUCAUUUUAUAAAUAAACAUGAGGAUCACCCAUGUGGCAAAAGCCUAGGGAGAAGGCGGAAUGCUAA [salish99_SSNG2_r2_121] | 29.9 nM | 39.6 nM | – | –
AAAACAUGAGGAUCACCCAUGUAAAGAACGGUUAAUUAAAGUGAGGAUAUACAAAAUUUUAUAUAGUAGAAGGCACUGGGUACA [JR_SSNG3_Sub022] | 24.9 nM | 21.4 nM | – | –
AGCGGUAGGACAGGAUAUGGUGACUUCAAGCGGCCAGAAGGGUCCCGACAUGAGGAUCACCCAUGUCUUCCAGGCAGGGAGCGC [Teanisradi] | 710 nM | 234 nM | – | –
CACACAUGGUGAGGAUAUGCAGAGGAUCACCCUGUAGAAGGCAUCAGGGUAGAAGGUGCAAGGAUCACCUGUAAGGAUAUAUCC [pwkr2 ssNG1 DX.27] | 1030 nM | 1430 nM | – | –
CCAGAUGUGUGAGGAUAUAGAGUGGAAUACACUCUAGAAGGUAUGUGAAAACAUGAGGAUCACCCAUGUGAUUAAUCAUCUGGA [SameState #2 NG1] | 27.9 nM | 24.4 nM | – | –
CCCUCCAGAAGAGGGACAUGAGGAUCACCCAUGUAGGCUGCACAGGAUAUCGAUCGGAGGCGGUACGAGAAGGGUGACGUCAUU [Atleis] | 48.7 nM | 26.9 nM | – | –
CCUGACACUUGAGGAUAUGCUCAGGAUAACUGAGCAGAAGGCAGGAAAACCUGAGGAUCACCCAGGUAAGUCAGGAAUAAUAAA [Same State NG1 - A3C, U17G Submission 3B] | 15.8 nM | 21.7 nM | – | –
GAAAAACAUGAGGAUCACCCAUGUAGAAAUAUGGGAGGAUAUACGAAGUCGAAAGACAAAGUAGAAGGCCUAAAAG [Garnet 27] | – | – | 27.9 nM | 50.4 nM
GAAAAACAUGAGGAUCACCCAUGUGAUAACAUGGGAGGAUAUACAAGGACGAUAGUCAAAGUAGAAGGCCUAAAAG [Garnet 61] | – | – | 289 nM | 47.9 nM
GAAAAACAUGAGGAUCACCCAUGUGAUAAUAUGGGAGGAUAUACGAAGACGAAAGUCAAAGUAGAAGGCCUAAAAG [Garnet 36] | – | – | 57.5 nM | 81.7 nM
GAAAAACAUGAGGAUCACCCAUGUGUAAACAUGGGAGGAUAUACGAAGACGUAAGUCAAAGUAGAAGGCCUAAAAG [Garnet 36] | – | – | 47.1 nM | 24.9 nM
GAAAAGAAAACACAGGAUAUCCAAAAGAAAACAUGAGGAUCACCCAUGUAAAGAAAAUAAAAAUGGGAGAAGGGUGAAAGAAAGA [Mat - Same State 2 - JL mod - D42] | – | – | 20.9 nM | 53.6 nM
GAAAUACAUGAGGAUCACCCAUGUUAGGUGAUUCAAGGAUAUCAAGGUAAAUAAAAACCUUGAGAAGGUGAAUAAA [JR_SS001_Sub205] | – | – | 177 nM | 163 nM
GAAAUACAUGAGGAUCACCCAUGUUAGGUGGAUCAAGGAUAUCAAGGUAAAUAAAAACCUUGAGAAGGUGAAUAAA [JR_SS001_Sub204] | – | – | 87.8 nM | 141 nM
GAAAUACAUGAGGAUCACCCAUGUUAGGUGGGUCAAGGAUAUUGAUAUAAAUAAAAAACUCGAGAAGGUGAAUAAA [JR_SS001_Sub201] | – | – | 229 nM | 179 nM
GAAGAACAUGAGGAUCACCCAUGUGAGAACAUGGGAGGAUAUACGAGGACGAAAGUCAAAGUAGAAGGCCUAAGAG [Garnet 87] | – | – | 104 nM | 29.8 nM
GAAGACAUAGUUCAGGAUAUAUGAAUAGUCACAUGAGGAUCACCCAUGUCCAUUUAUAUGGGCACAUAGAAGGGAGGUAGUUAUC [SameState2 Malc#25] | – | – | 618 nM | 380 nM
GACAGACAUGAGGAUCACCCAUGUAGAAUUAUGGGAGGAUAUACAAAGACGAGAGUCAGAGUAGAAGGCCUAGGAA [salish99-ss1-167] | – | – | 23.2 nM | 52.8 nM
GACGAAAUCUUAGGAUAUGCUCAGGAAUACUGAGCAGAAGGAAGAUAUACCUGAGGAUCACCCAGGUUAAACUGGACGUCAAUA [Same State NG1 - A3C, U17G Submission 8I U7A] | 24.9 nM | 29.4 nM | – | –
GAUAGGAAGAGAGAGGAUAUCCAAAGGAAAACAUGAGGAUCACCCAUGUAAAAGGUAGGAAAUUGGGAGAAGGCUCAAGAGAGAG [salish99-ss2-075] | – | – | 11.6 nM | 31.9 nM
GCAAAACAUGAGGAUCACCCAUGUGAAAAGAAUGUAGGAUAUGGGCUCAGAAAUAGCAGCCCAGAAGGGCGAAGAA [Xequamara] | – | – | 21.9 nM | 24.8 nM

Sequence | apparent KD of MS2 coat protein ([1]; input ligand: FMN 200 uM) | apparent KD of MS2 coat protein ([1]; input ligand: none) | apparent KD of MS2 coat protein [2] | apparent KD of MS2 coat protein [3]
GCAGAAGGUGCGGAGGAUCACCCUGUAAGGAUAUGCAUUAGCAAGGAUAUACAGAGGAUCACCCUGUAGAAGGUGCACUACUCA [pwkr2 ssNG3 DX.3] | 562 nM | 1970 nM | – | –
GCCGGUUAUGAGCAGGAUAUGUCACCGCUAACAUGAGGAUCACCCAUGUGAGCAAAAUCGAGGUCACAGAAGGGUUCCGGCAAAA [Disoerce] | – | – | 17.8 nM | 41.9 nM
GCUUGCGACGCAGGAUAUGGGUGCCUGCACAUGAGCAUCAGCCAUGUUGAGGAACGGAUUACGUCUCAGAAGGGCGUGGCAGGC [United States 3 - Jieux - Same State NG 2] | 16.7 nM | 19.9 nM | – | –
GGAUCCAACACAGGAUAUGCUGGACUUUGUCCAGCAGAAGGGUGAAACAUGAGGAUCACCCAUGUAUGGAUCCAUAUAUUUAAU [Denovo 32] | 245 nM | 629 nM | – | –
GGCUUAAACACAGGAUAUAGCCUUAGAGUGAGGCUAGAAGGGUGAAGUUCUCAUACAUGAGGAUCACCCAUGUCACGGAGGCUA [Atteedbian] | 307 nM | 37.1 nM | – | –
GGGAGACAUGAGGAUCACCCAUGUGAGAAGAGGCGAGGAUAUCGAAAGAAAGAAGAGAAACGAGAAGGCGCGAGUG [salish99-SS1-058] | – | – | 64.8 nM | 82 nM
GGGAGGAAGAGAGAGGAUAUCCAAAGGAAAACAUGAGGAUCACCCAUGUAAAAGGUAGGAAAUUGGGAGAAGGCUCAAAAGAGUG [salish99-ss2-043] | – | – | 13.7 nM | 22.2 nM
GGGAGGAAGAGAGAGGAUAUCCAAAGGAAAACAUGAGGAUCACCCAUGUAAAAGGUAGGAAAUUGGGAGAAGGCUCAAAAGAUGG [salish99-ss2-046] | – | – | 70.5 nM | 22.3 nM
GUAGCAUACAGAGGAUAUUCAAACCGGAAACGGACAUGAGGAUCACCCAUGUGGCGAAAGCCUAGGGAGAAGGCUGAAUGCUAC [Xeinanis 75 40] | 11.7 nM | 16 nM | – | –
GUAGCAUACCGAGGAUAUUCAUCCGGAUUACGGACAUGAGGAUCACCCAUGUGGCGAAAGCCUUGGGAGAAGGCGGAAUGCUAC [Xeinanis 75 33] | 34.4 nM | 369 nM | – | –
UAACGCGCAUGCAAGGAUAUGUGCAGAGCUACAUGAGGAUCACCCAUGUGGUUAUGCUAUUGAAAACAGAAGGUGCCCUCGCUCA [Ceties] | – | – | 22.4 nM | 16.8 nM
UAUCAUUACACGAAGGAUAUCGAUAAUUGAACAUGAGGAUCACCCAUGUGAUAUAUAAUACAGUUCGAGAAGGUCGAGGGUGAAG [JR_SS002_Sub704] | – | – | 17.8 nM | 23.9 nM
UGAAGACAUGAGGAUCACCCAUGUGGGAAUAUGGGAGGAUAUACAAAGACGAGAGUCAGAGUAGAAGGCCUAGGAA [salish99-ss1-95] | – | – | 28.5 nM | 114 nM
UGAAGACAUGAGGAUCACCCAUGUGGGAAUAUGGGAGGAUAUACAAAGACGAGAGUCAGAGUAGAAGGCCUAGGAG [salish99-ss1-97] | – | – | 55.1 nM | 103 nM
UGAGGACAUGAGGAUCACCCAUGUAGGCCACAAUCAGGAUAUGCAUUAAGGUACCUAAGAGUAGAAGGGAUUCGAG [SameState_Neo] | – | – | 34.9 nM | 30.8 nM
UGGAGACAUGAGGAUCACCCAUGUGAGAAGAGGCGAGGAUAUCGAAAGAAAGAAGAGAAACGAGAAGGCGCGAGAU [salish99-SS1-034] | – | – | 21 nM | 27.6 nM
UGGAGACAUGAGGAUCACCCAUGUGAGAAGAGGCGAGGAUAUCGAAAGAAAGAAGAGAAACGAGAAGGCGCGAGGA [salish99-SS1-039] | – | – | 47.6 nM | 49.8 nM
UGGAGACAUGAGGAUCACCCAUGUGAGAAGAGGCGAGGAUAUCGAAAGAAAGAAGAGAAACGAGAAGGCGCGAGGU [salish99-SS1-036] | – | – | 34.4 nM | 49.6 nM
UGUCUACCUGAUGAGGAUAUCCCACAGGCGACAUGAGGAUCACCCAUGUAAAGUAAGCGUAGGCGGGAGAAGGCAUGGCGGAGAC [Larearre] | – | – | 14.5 nM | 30.7 nM
UUUAGUUGCGGGCAGGAUAUGUAUUAAAAUACAUGAGGAUCACCCAUGUGCGGGUAUAACACCCGACAGAAGGGCCAAUCGCGAC [Laonerce] | – | – | 18.3 nM | 305 nM
